In patent publication US20250304703A1 (AKESO BIOPHARMA, published 2025):

Legend:
[1] = target: T1, human IL-4RA-hFc (human, UniProt P24394 26-232); test: indirect ELISA, coated IL-4RA-hFc 1 ug/mL, 4-parameter fit
T1 construct: mature; no linker is stated
T1 sequence (looked up): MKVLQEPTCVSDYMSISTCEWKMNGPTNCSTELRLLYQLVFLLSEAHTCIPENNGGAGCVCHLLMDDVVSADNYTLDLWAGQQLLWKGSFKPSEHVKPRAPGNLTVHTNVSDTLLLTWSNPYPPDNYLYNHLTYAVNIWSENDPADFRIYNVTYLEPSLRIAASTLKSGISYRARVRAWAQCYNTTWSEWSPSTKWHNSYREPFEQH
Experimental: Procedures: The Elisa plates were coated with human IL-4RA-hFc or human IL-4RA-mFc and were incubated, and the target antibodies were added after blocking. […] The plates were incubated and washed before TMB (Neogen, 308177) was added for chromogenic reaction. At the end of the reaction, the absorbance at 450 nm was measured by a microplate reader. The data were analyzed and processed by SoftMax Pro 6.2.1.

[2] = target: T1, human IL-4RA-hFc; test: competitive ELISA, competitor IL4-N-His (anti-His signal); antibody 3 ug/mL
Experimental: (§1) The Elisa plates were coated with human IL-4RA-hFc and blocked before the target antibodies were added. […] After the plates were washed, mouse anti-His, HRP (purchased from CoWin Biosciences, Cat No. CW0285A) was added for incubation. The plates were subjected to another wash. A chromogenic reaction was performed by adding TMB (Neogen, 308177) and was then terminated. The Elisa plates were put into a microplate reader immediately, and the OD value of each well in the Elisa plates was read at 450 nm. The data were analyzed and processed by SoftMax Pro 6.2.1.

[3] = target: T1, human IL-4RA-hFc; test: competitive ELISA, competitor IL4-N-His, coated IL-4RA-hFc, 4-parameter fit
Experimental: as §1
By 4-parameter logistic regression of absorbance vs. antibody concentration, the blocking EC₅₀ of the antibodies was calculated.

EC50 [1]: 0.084 nM
OD 450 nm [2]: 0.053 OD
EC50 [3]: 3 nM
B1: anti-human IL-4RA antibody 13E5 (antibody, V domains shown)
VH: EVQLQQSGPELVKPGASVKISCKTSGYTFTEYTIHWVKQNHGKSLEWIGGINPNNGGTVYNQNFKGKATLTVDKSSSTAYMELRSLTSEDSAVYYCARVRRGMDYWGQGTSVTVSS
VL: DIVMTQSHKFMSTSVGDRVSITCKASQDVTTAVAWYQQKPGQSPKLLIYSASYRYTGVPDRFTGSGSGTDFTFTISSVQAEDLAVYYCQQHYSAPWTFGGGTNLEIK
notes: also called murine antibody 13E5; monoclonal antibody of hybridoma cell line LT008 (IL-4RA-13E5), CCTCC NO: C2018131
